Experimental data: patent publication US20180135070A1 (BOARD OF TRUSTEES OF MICHIGAN STATE UNIVERSITY, published 2018)

Target: T1, MBP-JAZ9-8×His (recombinant, E. coli-expressed) (Arabidopsis, UniProt Q8W4J8 1-267, limits assumed)
T1 construct: procedure cited from Katsir et al. 2008; also called Escherichia coli-expressed JAZ9 protein
T1 sequence: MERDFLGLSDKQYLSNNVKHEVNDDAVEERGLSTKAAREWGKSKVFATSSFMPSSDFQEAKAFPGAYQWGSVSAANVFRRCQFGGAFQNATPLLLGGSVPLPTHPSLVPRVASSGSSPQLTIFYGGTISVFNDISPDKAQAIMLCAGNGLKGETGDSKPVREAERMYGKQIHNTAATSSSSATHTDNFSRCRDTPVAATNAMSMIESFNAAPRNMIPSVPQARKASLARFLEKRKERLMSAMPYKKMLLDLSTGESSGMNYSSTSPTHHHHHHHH
Test: Ni-resin pull-down of plant-expressed COI1-4×c-Myc with MBP-JAZ9-8×His, COR series, anti-c-Myc immunoblot
Procedure: Pull-down assays were performed with protein extracts from 4-mg pCOI1:COI1WT/A384V-4×c-Myc plants and 25 μg recombinant MBP-JAZ9-8×His. […] Eighty microliters of Ni resin (Invitrogen) were added, followed by an additional 15-min incubation period at 4° C. MBP-JAZ9-8×Hisbound Ni resin was washed three times on microcentrifuge spin columns with 0.25 mL binding buffer at 4° C. MBP-JAZ9-8×His was eluted from the resin with 100 μL of 300 mM imidazole. Proteins bound to MBP-JAZ9-8×His were analyzed by immunoblotting for the presence of COI1WT/A384V-4×c-Myc using anti-cMyc antibody. MBP-JAZ9-8×His recovered by the Ni affinity resin was detected by Coomassie blue staining.

B1: COI1A384V-4×c-Myc (plant-expressed) (receptor, not shown: small tags and cut ends)
chain: MEDPDIKRCKLSCVATVDDVIEQVMTYITDPKDRDSASLVCRRWFKIDSETREHVTMALCYTATPDRLSRRFPNLRSLKLKGKPRAAMFNLIPENWGGYVTPWVTEISNNLRQLKSVHFRRMIVSDLDLDRLAKARADDLETLKLDKCSGFTTDGLLSIVTHCRKIKTLLMEESSFSEKDGKWLHELAQHNTSLEVLNFYMTEFAKISPKDLETIARNCRSLVSVKVGDFEILELVGFFKAAANLEEFCGGSLNEDIGMPEKYMNLVFPRKLCRLGLSYMGPNEMPILFPFAAQIRKLDLLYALLETEDHCTLIQKCPNLEVLETRNVIGDRGLEVLAQYCKQLKRLRIERGADEQGMEDEEGLVSQRGLIALAQGCQELEYMVVYVSDITNESLESIGTYLKNLCDFRLVLLDREERITDLPLDNGVRSLLIGCKKLRRFAFYLRQGGLTDLGLSYIGQYSPNVRWMLLGYVGESDEGLMEFSRGCPNLQKLEMRGCCFSERAIAAAVTKLPSLRYLWVQGYRASMTGQDLMQMARPYWNIELIPSRRVPEVNQQGEIREMEHPAHILAYYSLAGQRTDCPTTVRVLKEPI
notes: In protein extracts of transgenic Arabidopsis (coi1-30 background); C-terminal 4×c-Myc tag; also called pCOI1:COI1A384V-4×c-Myc
fold higher COR concentration required for robust co-receptor formation, against COI1WT-JAZ9: ~100 fold
